# In patent publication US20210057047A1, “IN-SILICO METHOD FOR DESIGNING A (D)-POLYPEPTIDE LIGAND” (THE GOVERNING COUNCIL OF THE UNIVERSITY OF TORONTO, priority 2018, published 2021):
# Read-outs that look alike come from different tables or passages of the source. Square brackets hold non-standard residues; d marks the D form. Ends that are not written are not given here. Peptide text beside a SMILES is read from it.
# Tests used:
# [1] = FDA approved peptide drugs, Table 1; cited from earlier work
# [2] = molecular target: T1, Proteinase K (ProtK) (Parengyodontium album, UniProt P06873); assay: in vitro; assay type: in vitro ADME
# T1 construct: purchased Bioshop
# T1 sequence (P06873 106-384): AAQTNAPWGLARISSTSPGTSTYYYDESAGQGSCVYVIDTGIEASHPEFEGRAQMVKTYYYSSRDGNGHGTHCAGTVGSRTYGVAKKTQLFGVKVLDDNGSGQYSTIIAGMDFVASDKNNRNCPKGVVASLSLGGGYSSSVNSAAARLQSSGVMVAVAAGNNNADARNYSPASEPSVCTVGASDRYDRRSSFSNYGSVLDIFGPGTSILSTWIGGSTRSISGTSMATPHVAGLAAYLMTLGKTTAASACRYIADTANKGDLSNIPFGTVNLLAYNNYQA
# Procedure: Stocks of 20 μM peptide in 200 μL total volume (10 mM Tris-base, 10 mM NaCl, pH 7.4) were supplemented with 5 μM CaCl2) and 30 uL removed for the untreated T0 sample. Proteinase K (ProtK, Bioshop) was then added to a final concentration of 100 μg/mL. Samples were incubated at 37° C. and 30 μL removed after each time point and protease activity blocked by the addition of 10 mM PMSF (200 mM stock dissolved in isopropanol). Protease inactivated samples were frozen at −20° C. until further use. Digestions were repeated three times. Frozen samples were supplemented with 8 μL sample loading buffer (4× NuPAGE, ThermoFisher Scientific), boiled ([…]) for 10 minutes, and centrifuged (12 000 rpm, 10 min) prior to loading the gel (12% NuPAGE Bis-Tris (ThermoFisher Scientific) with MES running buffer). Gels were run at 200 V for […] and stained using Coomassie Brilliant Blue dye. Densitometry of bands was determined using ImageJ software (40) with back ground subtraction. All samples were normalized to their respective untreated sample (T0).
# [3] = tested on: pCDNA3.1 HEK293 cells; assay: CRE-luciferase reporter assay in control pCDNA3.1 HEK293 cells; assay type: cell-based; conditions: pCDNA3.1 HEK293 cells without GLP1 receptor
# [4] = molecular target: T2, parathyroid receptor (PTH1R) (Homo sapiens, UniProt Q03431); assay: CRE-luciferase reporter assay in HEK293 cells stably expressing PTH1R; assay type: cell-based
# T2 construct: expressed in transfected cells; host or cells: HEK293
# T2 sequence (Q03431 27-593): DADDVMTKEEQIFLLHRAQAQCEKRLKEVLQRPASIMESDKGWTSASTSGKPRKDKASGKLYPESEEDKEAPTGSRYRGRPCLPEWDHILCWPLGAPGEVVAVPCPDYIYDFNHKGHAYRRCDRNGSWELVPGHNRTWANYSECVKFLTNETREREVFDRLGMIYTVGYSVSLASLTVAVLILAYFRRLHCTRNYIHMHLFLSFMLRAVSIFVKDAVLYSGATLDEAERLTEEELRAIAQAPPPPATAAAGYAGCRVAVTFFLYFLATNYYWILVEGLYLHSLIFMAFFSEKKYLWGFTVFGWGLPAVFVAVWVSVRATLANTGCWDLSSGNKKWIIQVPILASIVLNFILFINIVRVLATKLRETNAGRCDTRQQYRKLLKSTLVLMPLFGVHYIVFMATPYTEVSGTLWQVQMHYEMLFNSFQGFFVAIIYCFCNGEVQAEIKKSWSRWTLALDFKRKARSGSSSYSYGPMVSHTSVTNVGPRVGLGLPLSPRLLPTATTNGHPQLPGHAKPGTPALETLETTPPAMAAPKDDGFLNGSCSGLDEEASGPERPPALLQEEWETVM
# Procedure: This activates protein kinase A (PKA) to phosphorylate and activate cAMP response element-binding protein (CREB). […] All of the (L)-PTH is degraded in under 1 hr, while more than 85% of the (D)-analog is still detectable at 6 hours.
# (a) (L)-PTH structure and sequence with hotspots highlighted in grey and junctions in black. (b) (D)-PDB match structures and sequences. (c) Final (D)-PTH construction from match sequences and RI (d) HEK293 cells stably expressing PTH1R and CRE-luciferase were stimulated with different concentrations of (L)-, (D)-PTH peptides and Forskolin. Luciferase activity was measured. The experiments were performed in triplicate. (e) Sample gel images of (L)- and (D)-PTH peptides treated with Proteinase K (ProtK) over 5 hours. Gels were stained with Coomassie Brilliant Blue dye and band densitometry calculated using ImageJ (40) with background subtraction. (f) Quantification of remaining peptide post ProtK treatment in […] intervals. Intensity of peptide bands were normalized to the intensity of the untreated peptide (T0) and converted to a percentage relative to T0. […] Error bars are reporting standard error. Data represent the average of 3 independent experiments.
# [5] = molecular target: GLP1 receptor (GLP1R) (human, UniProt P43220 24-463); assay: cell-based or functional assay
molecule,measurement,setting,value
CC(C)C[C@H](NC(=O)[C@H](CCCCN)NC(=O)CNC(=O)[C@H](CC(C)C)NC(=O)[C@@H](NC(=O)[C@@H]1CSSC[C@H](N)C(=O)N[C@@H](CO)C(=O)N[C@@H](CC(N)=O)C(=O)N[C@@H](CC(C)C)C(=O)N[C@@H](CO)C(=O)N[C@@H]([C@@H](C)O)C(=O)N1)C(C)C)C(=O)N[C@@H](CO)C(=O)N[C@@H](CCC(N)=O)C(=O)N[C@@H](CCC(=O)O)C(=O)N[C@@H](CC(C)C)C(=O)N[C@@H](Cc1c[nH]cn1)C(=O)N[C@@H](CCCCN)C(=O)N[C@@H](CC(C)C)C(=O)N[C@@H](CCC(N)=O)C(=O)N[C@H](C(=O)N[C@@H](Cc1ccc(O)cc1)C(=O)N1CCC[C@H]1C(=O)N[C@@H](CCCNC(=N)N)C(=O)N[C@H](C(=O)N[C@@H](CC(N)=O)C(=O)N[C@H](C(=O)NCC(=O)N[C@@H](CO)C(=O)NCC(=O)N[C@H](C(=O)N1CCC[C@H]1C(N)=O)[C@@H](C)O)[C@@H](C)O)[C@@H](C)O)[C@@H](C)O [Calcitonin],t½,[1],0.967 h
CC[C@H](C)[C@H](NC(=O)[C@H](Cc1ccccc1)NC(=O)[C@H](CC(=O)O)NC(=O)[C@H](CCCNC(=N)N)NC(=O)[C@H](C)NC(=O)[C@H](C)NC(=O)[C@H](CC(C)C)NC(=O)[C@H](CC(N)=O)NC(=O)[C@H](CC(=O)O)NC(=O)[C@H](CC(C)C)NC(=O)[C@@H](NC(=O)[C@@H](NC(=O)[C@H](CC(N)=O)NC(=O)[C@H](CCSC)NC(=O)[C@H](CCC(=O)O)NC(=O)[C@H](CC(=O)O)NC(=O)[C@H](CO)NC(=O)[C@H](Cc1ccccc1)NC(=O)[C@H](CO)NC(=O)CNC(=O)[C@H](CC(=O)O)NC(=O)CNC(=O)[C@@H](N)Cc1c[nH]cn1)[C@@H](C)O)[C@@H](C)CC)C(=O)N[C@@H](CC(N)=O)C(=O)N[C@@H](Cc1c[nH]c2ccccc12)C(=O)N[C@@H](CC(C)C)C(=O)N[C@H](C(=O)N[C@@H](CCC(N)=O)C(=O)N[C@H](C(=O)N[C@@H](CCCCN)C(=O)N[C@H](C(=O)N[C@H](C(=O)N[C@@H](CC(=O)O)C(=O)O)[C@@H](C)O)[C@@H](C)CC)[C@@H](C)O)[C@@H](C)CC [Teduglutide],t½,[1],1.33 h
CC[C@@H](C)[C@@H](NC(=O)[C@@H](C)NC(=O)[C@@H](CCC(=O)O)NC(=O)[C@H](NC(=O)[C@@H](CC(C)C)NC(=O)[C@@H](CCC(=O)O)NC(=O)CNC(=O)[C@@H](C)NC(=O)[C@@H](C)NC(=O)[C@@H](CC(C)C)NC(=O)[C@H](NC(=O)[C@@H](Cc1ccccc1)NC(=O)[C@@H](CC(C)C)NC(=O)[C@@H](CCC(=O)O)NC(=O)[C@@H](CC(C)C)NC(=O)[C@@H](Cc1ccccc1)NC(=O)[C@@H](C)NC(=O)[C@@H](CCCCN)NC(=O)CNC(=O)[C@H](N)CCCNC(=N)N)[C@H](C)CC)[C@H](C)CC)C(=O)N[C@H](CC(=O)O)C(=O)N[C@H](CCCNC(=N)N)C(=O)N[C@@H](C(=O)N[C@H](Cc1ccccc1)C(=O)N[C@@H](C(=O)NCC(=O)N[C@H](CCC(=O)O)C(=O)N[C@H](C)C(=O)N[C@H](Cc1c[nH]cn1)C(=O)O)[C@H](C)O)[C@H](C)O [(D)-GLP1] (H-[dR]G[dK][dA][dF][dL][dE][dL][dF][dI][dL][dA][dA]G[dE][dL][dI][dE][dA][dI][dD][dR][dT][dF][dT]G[dE][dA][dH]-OH; N-terminus and C-terminus assumed),degradation by ProtK (in words),[2],persists after 5 hours
Sermorelin,t½,[1],0.2 h
"(L)-PTH: native parathyroid hormone, residues 1-34",degradation by ProtK (in words),[2],rapid degradation
same,time until all peptide is degraded,[2],under 1 hr
"(L)-GLP-2: native GLP-2, gastrointestinal peptide",time until all peptide is degraded,"[2]; exposure to ProtK, 37° C.",about 1 hr
same,degradation by ProtK (in words),[2]; treatment with ProtK over 5 hours,rapid degradation
CC[C@H](C)[C@H](NC(=O)[C@H](Cc1ccccc1)NC(=O)[C@H](CCC(=O)O)NC(=O)[C@H](CCCCN)NC(=O)[C@H](C)NC(=O)[C@H](C)NC(=O)[C@H](CCC(N)=O)NC(=O)CNC(=O)[C@H](CCC(=O)O)NC(=O)[C@H](CC(C)C)NC(=O)[C@H](Cc1ccc(O)cc1)NC(=O)[C@H](CO)NC(=O)[C@H](CO)NC(=O)[C@@H](NC(=O)[C@H](CC(=O)O)NC(=O)[C@H](CO)NC(=O)[C@@H](NC(=O)[C@H](Cc1ccccc1)NC(=O)[C@@H](NC(=O)CNC(=O)[C@H](CCC(=O)O)NC(=O)[C@H](C)NC(=O)[C@@H](N)Cc1c[nH]cn1)[C@@H](C)O)[C@@H](C)O)C(C)C)C(=O)N[C@@H](C)C(=O)N[C@@H](Cc1c[nH]c2ccccc12)C(=O)N[C@@H](CC(C)C)C(=O)N[C@H](C(=O)N[C@@H](CCCCN)C(=O)NCC(=O)N[C@@H](CCCNC(=N)N)C(=O)O)C(C)C [(L)-GLP1],luciferase expression (in words),[3],inactive
CC[C@@H](C)[C@@H](NC(=O)[C@@H](CCC(=O)O)NC(=O)[C@@H](CCCNC(=N)N)NC(=O)[C@@H](CCSC)NC(=O)[C@@H](CC(C)C)NC(=O)[C@@H](CC(=O)O)NC(=O)CNC(=O)[C@@H](CCCCN)NC(=O)[C@@H](Cc1c[nH]cn1)NC(=O)[C@@H](CC(N)=O)NC(=O)[C@@H](CCCNC(=N)N)NC(=O)[C@@H](Cc1c[nH]c2ccccc12)NC(=O)[C@@H](CCC(=O)O)NC(=O)[C@H]1CCCN1C(=O)[C@@H](CC(C)C)NC(=O)[C@@H](Cc1ccc(O)cc1)NC(=O)[C@@H](CCSC)NC(=O)[C@@H](CC(C)C)NC(=O)[C@@H](CC(C)C)NC(=O)[C@@H](CCSC)NC(=O)CNC(=O)[C@H](NC(=O)[C@@H](CO)NC(=O)[C@@H](CC(=O)O)NC(=O)[C@@H](C)NC(=O)[C@H](NC(=O)[C@@H](C)NC(=O)[C@@H](CC(C)C)NC(=O)CNC(=O)[C@@H](C)N)C(C)C)C(C)C)C(=O)N[C@H](CCCNC(=N)N)C(=O)N[C@H](CO)C(=O)N[C@H](CCCNC(=N)N)C(=O)N[C@H](CCCCN)C(=O)N[C@@H](C(=O)N[C@H](CO)C(=O)O)C(C)C [(D)-PTH] (H-[dA]G[dL][dA][dV][dA][dD][dS][dV]G[dM][dL][dL][dM][dY][dL][dP][dE][dW][dR][dN][dH][dK]G[dD][dL][dM][dR][dE][dI][dR][dS][dR][dK][dV][dS]-OH; N-terminus and C-terminus assumed),"activation of PTH1R, potency and efficacy (in words)",[4],potency and efficacy comparable to (L)-PTH and Forskolin
same,degradation by ProtK (in words),[2],persists after 5 hours
"Thymosin (Ac-SDAAVDTSSEITTKDLKEKKEVVEEAEN; UniProt P06454 2-29, looked up) [FDA approved peptide drug, hepatitis, cancer]",t½,[1],2 h
Parathyroid Hormone,t½,[1],3 h
Glucagon,t½,[1],0.25 h
[dR]G[dK][dA][dF][dL][dE][dL][dF][dI][dL][dA][dA]G[dE][dL][dI][dE][dA][dI][dD][dR][dT][dF][dT]G[dE][dA][dH] (designed binder) [(D)-GLP1 peptide],"EC50, CRE-luciferase expression",[5],2.2 µM
same,potency relative to the native peptide,[5],~40 fold lower
